This data set in a line: label from the status in PepcDB records.

“MQRVEEVFARREPELAPMAEPAPQPQVRQEPLPEVDQAYIHNYVETSGQQDIRADFRDDAGAVAEVFDVHSRQPRAAEPVVYQQAAPQVAPQLAWEEPQAIEPSQPEWHAMPELPADVSSNISSDAHAYAPEPQAFDLADEVEIAVAEAAPAPVSVRPPAHGGRSSLEFSSLRLPLANFGARRDVSAVDPRRVEPRSELYPAASRIEPQVEPAPAVVQAEETAPSFAQPVAEVFTPAAEPLAPAIAERPAAKNLSPMDELIYGVAQYSIPERGEAQPVKTEPVAQAAKVEPPAVAAAPAKAAPVAAAVPASPIEEPDFTDFTGFNDDDFELALDDLDLDLDLSEIAEAEVAPAPQPVRPQPATPIAAVAPQPVRHEPAPQPRPAPVVAAAPIAAAPVVAAPVQPRPVAAQPAVPQTLESLPFDPSQIGETEEHPETIIEMDVPELPVGVFEPKPAARRHEEDLDIDTELATLFAPAVAGGLDRHKHAENRGAAQARPAPAPEEADEFERALEEDFRRSMQEAAASRGNAPRDAETYVDHQAAYRDEDERGGRRWIMPVAAAIGLVLIGGGVYALISGGSSGTGSNGAPVIISADNDPMKVVPENPGGRVVPNQDKAVYDRVAGGAAADPKQPALISSNEKPVDVVQRTLIPEQLPLEGENDADMEAAGTPVGETEDPRLLSPEEKAAHNEGAGATGVSPRKVRTMIVKPDGTLVAQEVDAPAAQPPKADKVAELAAPQTAKPGEGAPAVIAASRVPVAPEQAQPQASTPAAAKPSTQSAAPLPAARPSSQPANVVATVTNQGNVRPATTAPAQAAQQQTAAATPAATSTPSAGGYYIQIASLPSQAEAQKSYQNMSAKFGSVIGGRGVDIKAAEIAGKGTFYRVRIPAGDKNEAVALCEKFRSAGGSCLVAR”: the protein production entry was “failed”.
For “MQRVLGFSTCSYSWIAQSFNRFHPRCIQPTCFRSKVTKLCPKRPRSSLLSDNNATKYPQKAIYLTAQVKLPQISEVQNATFDQCLPLARNICFRLQEEPQDENAYQVLKELLSREEGARAFFVEYLSDYELSLPDKKPPFKLEKLLKDCDEYVPNLLARNLAMSVAKEVDLANDSKNAENEEVDDTGSGSWSDSVEESSGGPTMVKERTALLIDSIASSEIARELVALWFSIRSRKGKYVHFLERQKFRKDQLDVIQRTLEVFIGA”, the protein production result is “failed”.
With “MQSKRGRPRNIETQKAILSASYELLLESGFKAVTVDKIAERAKVSKATIYKWWPNKAAVVMDGFLSAAAARLPVPDTGSALNDILIHATSLANFLISREGTIINELVGEGQFDSKLAEEYRVRYFQPRRLQAKQLLEKGIKRGELKENLDIELSIDLIYGPIFYRLLVTGEKLDDSYVHDLVINAFEGIRLR”, the protein production result is given as “not failed”.
“MQSPPHDPASALAIRNHYRQSQSRAARLRLLVDTGQELIQLPPEAMRKCVLQRACAFVAMDHGLLLEWGADNGVQTTARHGSKERLSTLETTADPLAIGPQWLERPGTHLPCVLLLPLRGADEGSFGTLVLANSVAISAPDGEDIESLQLLATLLAAHLENNRLLEALVARDRT”: the protein production result was “not failed”.
On to “MQSTIRKQLLQVFSEADGEFVSGQTISDKLGCSRTAVWKHMEDLRNEGYELEAVRRLGYRIASKPDKVTANEIQLGLQTKHIGRTVYFEESVESTQHIAAKLAYEGAEEGTIVVAEEQTAGRGRLSRKWHSPKGTGIWMSIILRPSIPVHHAPQLTLLAAVSVAQAIEKCTGVNVGIKWPNDILIQGKKAVGILTEMQADPDKINAVIMGIGINANQKQEHFDEEIQHIATSLAIESGKPIVRAELMQQIFLQLEKLYEEYLQNGFSVIKILWESYAVSIGKEINARTMRETITGVAKGITEDGVLLLEDHEGKVHHIHSADIEIK”, for which the protein production result is on record as “failed”.
The value for “MQTIIYQIAPNDWVTDEVLMASTGLKPGTILRARKKAWFVGREYKHMTLDGKPKANGECLYHLPTINRWIRNMPDPDVDLLEHHHHHH” was “not failed”; that for “MQTINATEIRNNFSYYIDTVVRDKPIAVKRNRDVLLFFSEQIIKDLLQDLKIHAELSKEDGIIIGTIDGFDLVVSGESEQEVIQKLAEDLLEYAQDYMNDFKLFYNAPNRKTHYPYILKVLLSSNIDEVKGYIYAEMV” was “not failed”; that for “MQTLIIVAHPELARSNTQPFFKAAIENFSNVTWHPLVADFNVEQEQSLLLQNDRIILEFPLYWYSAPALLKQWMDTVMTTKFATGHQYALEGKELGIVVSTGDNGNAFQAGAAEKFTISELMRPFEAFANKTKMMYLPILAVHQFLYLEPDAQQRLLVAYQQYATNVGAGHFKDLEHHHHHH” was “not failed”.
